Measurements published in article PMC8003416, “Modulation of Human Phenylalanine Hydroxylase by 3-Hydroxyquinolin-2(1H)-One Derivatives” (Biomolecules, 2021).

Biological target: the molecule itself
Experiment: SEC; HiLoad Superdex 200 HR column (1.6 x 60 cm), 20 mM Na-HEPES, 200 mM NaCl, pH 7.0, 0.7 mL/min, 4 °C; preparative isolation of the oligomeric form after affinity purification

B1: MBP-FXa-hPAH-RD^1–120 (N-terminal regulatory domain of human phenylalanine hydroxylase fused to maltose binding protein) (domain or fragment, UniProt P00439 1-120, looked up)
chain: MSTAVLENPGLGRKLSDFGQETSYIEDNCNQNGAISLIFSLKEEVGALAKVLRLFEENDVNLTHIESRPSRLKKDEYEFFTHLDKRSLPALTNIIKILRHDIGATVHELSRDKKKDTVPW
notes: human phenylalanine hydroxylase, N-terminal regulatory domain, amino acids 1-120; The fusion is about 53 kDa; also called MBP-FXa-hPAH-RD^1–120 fusion protein; dimeric MBP-FXa-hPAH-RD^1–120; source: E. coli TB1, purified (amylose resin, then SEC to isolate dimers); not shown: MBP, N-terminal, kept
stoichiometry N: 2
